In patent publication US11643691B2, “Predictive biomarkers for cancer immunotherapy and methods of using same” (Duke University, priority 2018, dated 2023):

Experiments:
[1] = system: bone-marrow-derived DCs (BMDCs); assay: Extracellular lactate assay (surrogate for glycolysis); type: cell-based, Murine; conditions: BMDC culture media, 0 to 48 hr
Procedure: Lactate measurement: L-Lactate was measured by lactate dehydrogenase conversion of L-lactate+NAD+ to pyruvate+NADH following treatment with […] (Pesce et al., 1975). Lactate standards and samples were read at NADH specific absorbance 340 nm. For lactate measurement in Wnt5a time course, BMDCs were seeded in a 48-well plate at 1 million cell per well. BMDCs were treated with 100 ng/ml of recombinant Wnt5a from 0 to 48 hours. For extracellular lactate determination, 0.5 ml of supernatant media was collected directly from the culture, deproteinized by polyethylene glycol precipitation (25% w/v PEG-8000, sigma), and clarified by centrifugation at 20,000 g for 5 min. […] L-lactate was measured by lactate dehydrogenase (LDH, final 2 U/ml, Sigma) conversion of L-lactate+NAD+(β-Nicotinamide adenine dinucleotide, Sigma) to pyruvate+NADH in Glycine Buffer solution (final concentration Glycine 0.2M, Hydrazine 0.17M to destroy pyruvate allowing reaction to run to complete oxidation of lactate, Chloroform 0.0125%, Sigma). Reaction was incubated at 37° C. for 30 minute (without CO2), L-lactate standards and samples were read at NADH specific absorbance 340 nm (Infinite 200 PRO, Tecan).

[2] = system: DCs; assay: Oxygen consumption rate (OCR) / OXPHOS, Seahorse XFe24 flux analysis of murine DCs; type: cell-based; conditions: DCs pre-treated
Procedure: Dendritic Cell Conditioning: DCs were treated with Wnt3a (100 ng/mL), Wnt5a (200 ng/mL), LPS (1 μg/mL), 1-MT (1 mM), 2DG (1 mM), or ETO (100 μM), 2-DG(2-deoxy-d-glucose, 1 mM), Oligomycin (1 μM), succinylacetone (250 μM), or vehicle control either for 24 or 48 hrs prior to their use in both in vitro and in vivo experiments.
Cellular Energy Metabolism Analysis: DC energy metabolism was measured using the XFe24 extracellular flux analyzer (Seahorse Bioscience), with the glycolysis stress test kit and the mitochondrial stress test kit as previously described (Everts et al., 2014, Zhao and Klimecki, 2015). For experiments involving LPS injection, DCs were plated in XFe24 plates (200,000/well in 500p1) and treated with LPS for 48 hours prior to XF analysis. DCs were washed and analyzed in XF media (RPMI without sodium bicarbonate, 10 mM glucose, 1% FBS, 2 mM L-glutamine). ECAR was analyzed in real-time with or without LPS stimulation. For experiments involving BrafV600EPten−/− cell line-derived conditioned media (CM), collected CM was concentrated and desalted with an Amicon Ultra 30K filter according to manufacturer's recommendations (Milipore). Final concentrate was further washed with XF media 3 times, added to DCs immediately prior to OCR analysis. For standard ECAR analysis, XF media (without glucose) was used to wash cells prior to the assay. […]

[3] = system: DCs; assay: BODIPY and fatty acid uptake assay; type: cell-based, Murine; conditions: TF2-C12 uptake, BODIPY
Procedure: BODIPY and Fatty Acid Uptake Assay: DCs were stained in 0.5 μg/ml BODIPY 493/503 in PBS for 15 min to determine neutral lipid content (Herber et al., 2010). Fatty acid uptake measurement in DCs were performed using a dodecanoic acid fluorescent TF2-C12 fatty acid (Sigma) according to the manufacturer's protocol.

[4] = system: BRAF^V600EPTEN^−/− melanoma cell line; assay: Qrt-PCR of chemokines in melanoma cell line after rWnt5a; type: cell-based; conditions: vs vehicle ctrl
Description: (A) TCGA melanoma database gene expression association analysis of CXCL5, CXCL2, and CXCR2 with WNT5A. (B) Whole tumor tissue Western blot analysis of Wnt5a, nuclear Yap-1, CXCL5 and β-actin (loading control). Representative blot shown (n=3). (C) Plasma CXCL5 ELISA following anti-PD-1 ab therapy vs IgG isotype ctrl therapy in the transgenic BRAF^V600EPTEN^−/− melanoma model (n=5). bottom, plasma CXCL5 dot blot following anti-PD-1 ab therapy vs IgG isotype ctrl therapy in the transgenic BRAF^V600EPTEN^−/− melanoma model. Representative of 3 independent experiments. pseudo-red reflective of density. (D) Qrt-PCR analysis of Cxcl5, Cxcl2, and Cxcl1 in the BRAF^V600EPTEN^−/− melanoma cell line following treatment with recombinant Wnt5a (rWnt5a) vs vehicle ctrl (n=3). (E) Western blot analysis of Yap-1 expression in total cellular lysates (top) and nuclear lysates (middle) following treatment of BRAF^V600EPTEN^−/− melanoma cells with rWnt5a at various time points. β-actin, total lysate loading ctrl. […], nuclear lysate loading ctrl. (bottom) rWnt5a induction of CXCL5 in the absence and presence of verteporfin (YAP inhibitor) or XAV939 (β-catenin inhibitor). All representative of 3 independent experiments. […]

B1: Wnt5a: Recombinant Human/Mouse Wnt5a Protein (R&D Systems) (protein, UniProt P41221 62-380, looked up)
Protein Wnt-5a: IIGAQPLCSQLAGLSQGQKKLCHLYQDHMQYIGEGAKTGIKECQYQFRHRRWNCSTVDNTSVFGRVMQIGSRETAFTYAVSAAGVVNAMSRACREGELSTCGCSRAARPKDLPRDWLWGGCGDNIDYGYRFAKEFVDARERERIHAKGSYESARILMNLHNNEAGRRTVYNLADVACKCHGVSGSCSLKTCWLQLADFRKVGDALKEKYDSAAAMRLNSRGKLVQVNSRFNSPTTQDLVYIDPSPDYCVRNESTGSLGTQGRLCNKTSEGMDGCELMCCGRGYDQFKTVQTERCHCKFHWCCYVKCKKCTEIVDQFVCK
lactate production [1]: suppresses lactate production | OXPHOS in DCs (OCR) [2]: effectively promoted OXPHOS in DCs | DC fatty acid uptake and lipid stores [3]: enhance DC fatty acid uptake and lipid stores | expression of Cxcl5, Cxcl2 and Cxcl1 [4]: increased expression of Cxcl5, Cxcl2, and Cxcl1
